Results as given in a protein production outcome set (Wang et al. 2014).

Experiment: label from the status in PepcDB records

Sequence	protein production
MNNLFVLLIIIALSVGSNNGSKLWPKNQLHFRNSFSRNYDVLTVHCKSKDDDLGIHTVARSYEYNFKFEDSVFGRTEFFCTLMHGVGSKYSVTFTAYKAKPAFVASTGVIKIWDALDDGIYLTDEDHDFVKIYGW	failed
MFKDGSLIPYLTAGDPDKQSTLNFLLALDEYAGAIELGIPFSDPIADGKTIQESHYRALKNGFKLREAFWIVKEFRRHSSTPIVLMTYYNPIYRAGVRNFLAEAKASGVDGILVVDLPVFHAKEFTEIAREEGIKTVFLAAPNTPAERLKVIDDMTTGFVYLVSLYGTTGAREEIPKTAYDLLRRAKRICRNKVAVGFGVSKREHVVSLLKEGANGVVVGSALVKIIGEKGREATEFLKKKVEELLGI	not failed
MLETLMYGAISALVFGTVLPLLYRSKNIRKASSGLSLLSSILLLGFAGIILYTRTEPVFPVTGFLPGAGFTLSADRLAAGFILLIGAVVPGVSIYSVEYVEHAKSEARKSLQASLTNLFILAMLMVILAGNMVSFLVFWEIMSLSSLLLVLHDYSSEENKKAGFFYFVMTNISTAFLFVGFISLFRLTGSADFGPLEYPAADLALPFIFLFIGFGVKAGLVPFHKWLPYAHPAAPSSVSALMSGVMLKVAVYGFLRFLLSVSAPELWWGVLILTAGSISALFGVIYALKENDIKRMLAYSSIENIGIIFTGIGLYAVFKVEGLESLALLSLVGACFHAFNHAVFKSLLFLCAGSVVHATGTRKIEAFGGLVKSMPVTSALFLIGSVSIAAMPPTNGFAGELLLYQAFFQSFAVTDPLLNIFLIIALSSFALTGALAAALFVKLFGITCLAIPRSEKSRLAEEVQKPMLVGPAVPAAFCILGGLFSKQLLSLAGWKIDFPDLLLLGILLGLIYTALFVIIRSKETGPARISETWGCGIPALAPYMEYSSAGFSEPLVMIFKSIYRTKIVNRPEYFDEKESLFKNGKVEIRLLRFFEEYLYIPPARAIDIFSKYVSKLQNGKLDSYVLYAFLAVIVLIIATGGFV	failed
MSAKSPTPQPPYEIPSFRKRRLITTGLLTITTLWFIYFYVDLVSATTLLTLPVIIAAPLIMVYIWYHEFTYYARVRKNNKLYKALYGHLQNHQHPENTDTPPM	failed
MIATIQNEKVIVSISDKGAELQSVRLKEDNTEYLWQGDSTYWGRRAPILFPIVGRLVDNTYYVDDKPYSLTQHGFARDLTFTVKEQSETKITYIVTSNEETLKKYPYEFELLVSYELDGQIVHVTYEVNNPTSKEMFFSIGAHPGFNFPLLEGESFTDYHLSFNGSERLETSVLEGPYLSNKKQLIAESTNELPLTYDLFKNDALIFENMNTDEISIRSHKHNKFVKVEFDGFPFVGVWTPGENAPFLCIEPWYGIADEVNPAKDFKEKKGIQSLQANETFTCRYSITIG	failed
MVGEVVLVNAYKKFFREYFNFKGKTSRLDFWYVILSLLILSIIPTAILSYLIFGSLMSISGGGNVQEIMEITFLNIPIFIIGIIYLFLFVPVITMTVRRWRDVGLRASGIILIFCLLVLIVILGFIIHLKQNIIIDFLIVISSSMFLITLMPSQICCTNSKNRISQFFFCSKGER	failed
QVPILHRDADFLLRALQPDDFVRTSRYENANREHLAPWEPLRDPGYFSVDNARARTLLQVASMDEGEALLLLLLDPDDGEVLGRCSYTNIVRGVFQACHLGFSLAAAAQGRGLMARALRVANRYCFEQLGLHRIMASHLPRNARSERLLESLGFEKEGYARAYLKIAGVWEDHVLRALVDAPR	not failed
MPPLCRRQSGVPSGRRARHSGGMRLLVLGGTEFVGRSVVEAALGRGWEVTVLHRGRHAPPPGVRALHGDRTAPDGLTALTGAEDTWDAVVDTWSAAPRAVRDAARLLRQRAGRYVYVSSCSVYAWAPPAGYAEDAPLVEGASADAGQRDYARDKRGAELAVLDAFGADRSVLVRAGLILGPYENVGRLPWWLNRLARGGPVLAPGPRDLPLQYIDVRDLADWVLGAVERELSGPYNLVSPPGHTTMGGLLEACATVTGGTAELRWTSPETVLAAGIEPWVQLPVWTPPGSDLHDALHTADVSRALATGLVCRPARDTAAGTWTWLRDLGGTAPQRPDRPPVGLDPETEAKVLAADGPGGGVSDTTP	failed
MLQMRTDLMAVACGRRSADLYIENGRVLNVHSGEILSGVGVAVASGRVAYVGPSRGMIGPETQFLDAEGGILVPGYVDPHAHFDNILSPRRLAEALLPLGTTMVVNDTLAVVARFGAPGLACLRAAATSLPLHFGWTVPISGWAPELEEAGYFAGLGLTDAELDVLLADETVLGTSEFLPWRRLLAGDQRLIARLDIARRHGKCCEGHNPGARADHLQVIAAAGLTDCHEALTSAEALNRLRAGLYVVLRHGPARYDLPELASLVMKEGVDRSRLMLTPDWVPPNDLAAFGHMDHPLSAAMEAGIPPLDAYRMASLNPARYFRIEGQIGSIAPGRYADILCLNDLREPRPKWVMAQGAVVARNGVPTPDWHGLDELELPAYRPSVLHASPADFRVASAGTGDVLVPAIEIMDRTVTRRIDLHLPVKDGVVSCAGEEGRVMKMAMPHPEGGFSIGFLVGVGGCLGAMSNSLASEPYHTLVIGTSDDDMAIAYNRMIELGGGVVTVQDGRIEAQLPLPLGGFMTKASAADVGAGIDAVNQWARNNGSNLENAFLTQHFLTYVGVPFFRMTPWGIYDVRKHCFLPPILNQGSEEDAL	failed
MNDHTAAIAAHFDQLAPNLDRWRRRNRTYYRDLEKLHRFWIPTGSRVLQVGSGLGDLLATVEPSFGIGIDVSPQAVAIAQQRHPQLQFHCLAAEELTPEAIGNPEPFDAIILTGVLSYLTDIQVVLEQLQAFCHPRTRLILGFHNFLWQPLLTAAEKVGQRSPQPPESWLGMQDVLNLLTLTGYEPIKQGRRFLLPRQIPLLTGWINRWISPLPVIEHLALTNYVIARPLAQPRSQPTVSVIVPARNEAGNIAAAVERLPELGAETELIFVEGHSRDQTWETIEQTVAEYQGPLKLLACRQTGKGKADAVRLGFDKASGDILMILDADLTVQPEDLGHFYRAIASGRGEFINGSRLVYPRSRLAMPGLNTLANRTFALIFSFLLGQPLKDTLCGTKVLWKTDYDRVAAGRKYFGDFDPFGDFDLLFGAAKLGLEIVEVPVRYQERSYGSSNIAHVREGLILARMCLYAAGKLKFPH	failed
MPNTNPVAAWKALKEGNERFVAGRPQHPSQSVDHRAGLAAGQKPTAVIFGCADSRVAAEIIFDQGLGDMFVVRTAGHVIDSAVLGSIEYAVTVLNVPLIVVLGHDSCGAVNAALAAINDGTLPGGYVRDVVERVAPSVLLGRRDGLSRVDEFEQRHVHETVAILMARSSAISERIAGGSLAIVGVTYQLDDGRAVLRDHIGNIGEEV	not failed
MRRGLVIVGHGSQLNHYREVMELHRKRIEESGAFDEVKIAFAARKRRPMPDEAIREMNCDIIYVVPLFISYGLHVTEDLPDLLGFPRGRGIKEGEFEGKKVVICEPIGEDYFVTYAILNSVFRIGRDGKGEE	not failed
ADVSATVSDMGSLLTAVTLAGVLDYYSVGTKVIKAPKKMVEQQILMTLQTMASLVESSGVDGLVKALNPELLSKAASSMHLLDQQKDLDAALEILTHL	not failed
MSMTKSEVCVIIAAKNAARTIAVAIASALREPEAAEVVVVDDGSTDNTAEVARSADDGSGRLKVMRLDVNRGPSFARNAAIAGSKAPFISILDADDFFLEGRFRNLFAAADWDFAADNIMLIRDDATNDATKIVAPDFAADPEFLDFERFVEGNISRRRVQRGELGFLKPVISRAFLDRHRLRYDESLRLGEDYELYARAVAHGARFKVIRSCGYGAIVRADSLSGRHKTQDLKRLADADLALLAIDSLPEGSKAVLRRHERHVRDKYRLRNFLDVKAERGLASAAAYAFASQSNLVPIVQGVASDKLEALFRRVGLVSRQKRVPPLRFLMAGTSAGKER	failed
MGHHHHHHSHCSSCSTPLYDQGGPVEILPFLYLGSAYHASRKDMLDALGITALINVSANCPNHFEGHYQYKSIPVEDNHKADISSWFNEAIDFIDSIKNAGGRVFVHCQAGISRSATICLAYLMRTNRVKLDEAFEFVKQRRSIISPNFSFMGQLLQFESQVLAPHCSAEAGSPAMAVLDRGTSTTTVFNFPVSIPVHSTNSALSYLQSPITTSPSC	failed
MKTYSVIAVASLLATNLLTFPSSSLAEIENKTRNSIEAVSHMQSNEKSELQKQLEAAKEREMKLEKREEILKQQEELFIKIDDLKQKKEELLEQAGEHNVQIEEVYQELNELKKQQEELEEKNPLQVKSNDQEKKTNELKSQEELKEKDGVEVKENNGQEEKVHEEFEEQKKKEELKKQQDELRKQQEELKKQQLELEQRIKQELERKQQEEQAKQELELKQKEEQAKRELELKQKEEQVKQELELKQKEEQVKQELELKQKEEQVKQELELKQKEEQEKQELELKQKEEQEKQELELKQKEEQKKQELELKQKEEQEKGERELKQAVSSIQAAPQSFPDVPGWAQESVYYLVHKKVISGMPDGTFSPSKVLSRAEAATIMAKILELEVSEGEKPTFTDSQDHWATPYIAAVEKAGVIKGEGNGKFNPNGQMTRAAMATMLVQAYQLEKKVHEELPTLFPDVKDHWGEKFINILVGMGISSGVDGGRWQPDRSITRAEAAQLVAVTDKSKDNELKMKKVSISKKFFTYNGPSLSSGISKEYGPREVTVYEERDGGWIRIHTDTGFKWVCLVEKKVNMNKNFLTYNEASLSSGISGEYAPQIVTVIEEREGNWIKVYTDLGYKWVCLIDKKVQIDRDFTTYDAPFRSANILDYYGPQAVTVVEERGTWLRIRTYAGYQWLDTKKEAKYLSKVFFAYDSPSFVSRVSGKYAPQTVEVYGEREGGWIQIQTSNGLKWVNEGNINRSQVILNVPSLYQFPELHNGCEVVSLQMLVEHQIGRSLNKVAFAFEMPFDQAKLKNYKTSSQIWGDPDVGFVGDVTGNTPGYSINPEPLKRLLDKYSRGTNLTGNDLSVLEDYVRNGKPVVTWVTVALNNPRAVTTWKTPGGKIIYARMNTHAVVLTGVDDNYVYYNDPFYGTKNVKVSKSRFASIYNQMGKKALSVD	failed
MRILLVGAGGFVGRHLLPALLAAGHELLLTARRPPVDAPAGVRWLALDLERLAERPDSFAWPAGVDLLINAAGTMSLDEASMARVQDSGARTLFDLAAAHGAKVLQISALGAGAHPDVAFLASKAAADRHLLELGIPALVLRPSLLLGPGGASSAWLERLSPLPLIPLLDNRARLQPLHVEDLVGAVLALLRCWPERAQVIPLVGPQALTQGELLDELRRAQGWPRGRYVVPPAALLDALGGLGRRAGWRTLSPSMLKLVRHDNLADPALLDEACGYRCAPLASRLLGWPQAARSLAALMRPLMLAALVLIWLGTLVACLGPGYGWGLRILGEAGIHGWPASLAVIAGALLDGALGVGLLLRRWRRRALLAQFWLMLGYSLAISLILPHYWYDPYMAVGKNIVLMVATLWLLGDEPRTREARG	failed
VDIVVIGAGFTGLSTAYHIRKTDSSASVVVLEGECVAFGASGRTSGWVVPIPVLDPATARTLYGKERLTELQNFAWDGLDYVRDLISRENMDSDFEVPGVTFTTLKGHEKRLETFIKYWKDQPRSSDSIIMDKATVSNALNSDAFSGGCRMLHSGQVNPVKHSRELKRIAQEAGAQIFEQTPVLDIEDHGTYFILKTPEGQVRTKHIVLGTNGFTHLLPATLGLRRAQLPMFVYQLMTEPLSEADWKALGWKHRAQFYDKTTYCPPTCRTTVDGRLQFNLCDVYLGTGRSMDEAQRMQFYDAAERMYKKMFPAFKNLRVAQRWSGACSISFDVRPQVGTLHDGRISYGYGYSGAGVMMSQNFGRILADLALQRKTELTE	failed
MRLRVDVIPGEHLAYPDVVLVVDVIRATTTAAAFLEAGAEALYWTPSLESALAFKDEDVVLAGETGGLKPPRFDLGNSPREALSAQVAGRVVVMSTTNGTKAAHAAARTAKHVLLASLYNAHAAARLARELATEEVAILCAGKEGRAGLDDLYTAGVLAEYLGFLGEVEPEDGARVALAVKRAYPDPLEALSLSAAALALKQVGLEADVPFCAQVAKSAAVPVLRGRVGEALIFKRA	not failed
